Substrate: CCCCC/C=C\C\C=C/C=C/C=C/[C@@H](SC[C@@H](NC(=O)CC[C@H](N)C(=O)O)C(=O)NCC(=O)O)[C@@H](O)CCCC(=O)O
Assay: cells, lysate or membranes named

B1: Multidrug resistance-associated protein 1 (Mus musculus) (protein)
chain: MALRSFCSADGSDPLWDWNVTWHTSNPDFTKCFQNTVLTWVPCFYLWSCFPLYFFYLSRHDRGYIQMTHLNKTKTALGFFLWIICWADLFYSFWERSQGVLRAPVLLVSPTLLGITMLLATFLIQLERRKGVQSSGIMLTFWLVALLCALAILRSKIISALKKDAHVDVFRDSTFYLYFTLVLVQLVLSCFSDCSPLFSETVHDRNPCPESSASFLSRITFWWITGMMVHGYRQPLESSDLWSLNKEDTSEEVVPVLVNNWKKECDKSRKQPVRIVYAPPKDPSKPKGSSQLDVNEEVEALIVKSPHKDREPSLFKVLYKTFGPYFLMSFLYKALHDLMMFAGPKILELIINFVNDREAPDWQGYFYTALLFVSACLQTLALHQYFHICFVSGMRIKTAVVGAVYRKALLITNAARKSSTVGEIVNLMSVDAQRFMDLATYINMIWSAPLQVILALYFLWLSLGPSVLAGVAVMILMVPLNAVMAMKTKTYQVAHMKSKDNRIKLMNEILNGIKVLKLYAWELAFQDKVMSIRQEELKVLKKSAYLAAVGTFTWVCTPFLVALSTFAVFVTVDERNILDAKKAFVSLALFNILRFPLNILPMVISSIVQASVSLKRLRIFLSHEELEPDSIERRSIKSGEGNSITVKNATFTWARGEPPTLNGITFSIPEGALVAVVGQVGCGKSSLLSALLAEMDKVEGHVTLKGSVAYVPQQAWIQNDSLRENILFGHPLQENYYKAVMEACALLPDLEILPSGDRTEIGEKGVNLSGGQKQRVSLARAVYSNSDIYLFDDPLSAVDAHVGKHIFEKVVGPMGLLKNKTRILVTHGISYLPQVDVIIVMSGGKISEMGSYQELLDRDGAFAEFLRTYANAEQDLASEDDSVSGSGKESKPVENGMLVTDTVGKHLQRHLSNSSSHSGDTSQQHSSIAELQKAGAKEETWKLMEADKAQTGQVQLSVYWNYMKAIGLFITFLSIFLFLCNHVSALASNYWLSLWTDDPPVVNGTQANRNFRLSVYGALGILQGAAIFGYSMAVSIGGIFASRRLHLDLLYNVLRSPMSFFERTPSGNLVNRFSKELDTVDSMIPQVIKMFMGSLFSVIGAVIIILLATPIAAVIIPPLGLVYFFVQRFYVASSRQLKRLESVSRSPVYSHFNETLLGVSVIRAFEEQERFIHQSDLKVDENQKAYYPSIVANRWLAVRLECVGNCIVLFAALFAVISRHSLSAGLVGLSVSYSLQITAYLNWLVRMSSEMETNIVAVERLKEYSETEKEAPWQIQETAPPSTWPHSGRVEFRDYCLRYREDLDLVLKHINVTIEGGEKVGIVGRTGAGKSSLTLGLFRINESAEGEIIIDGVNIAKIGLHNLRFKITIIPQDPVLFSGSLRMNLDPFSQYSDEEVWMALELAHLKGFVSALPDKLNHECAEGGENLSVGQRQLVCLARALLRKTKILVLDEATAAVDLETDNLIQSTIRTQFEDCTVLTIAHRLNTIMDYTRVIVLDKGEVRECGAPSELLQQRGIFYSMAKDAGLV
Km: 0.05 µM
